# PMC5828407 (Veterinary Research, 2018)
# Target: GST-tagged FaeG fusion protein of F4ac (Escherichia coli, UniProt P14190 22-283)
# Assay: ELISA; APN protein coated on plates, incubated with FaeG peptides, fusion FaeG proteins or F4 fimbriae; absorbance at 450 nm
# Conditions: both partners purified
binder,measurement,value
"porcine aminopeptidase N (APN), His-tagged whole protein (receptor) MAKGFYISKALGILGILLGVAAVATIIALSVVYAQEKNKNAEHVPQAPTSPTITTTAAITLDQSKPWNRYRLPTTLLPDSYNVTLRPYLTPNADGLYIFKGKSIVRLLCQEPTDVIIIHSKKLNYTTQGHMVVLRGVGDSQVPEIDRTELVELTEYLVVHLKGSLQPGHMYEMESEFQGELADDLAGFYRSEYMEGNVKKVLATTQMQSTDARKSFPCFDEPAMKATFNITLIHPNNLTALSNMPPKGSSTPLAEDPNWSVTEFETTPVMSTYLLAYIVSEFQSVNETAQNGVLIRIWARPNAIAEGHGMYALNVTGPILNFFANHYNTSYPLPKSDQIALPDFNAGAMENWGLVTYRENALLFDPQSSSISNKERVVTVIAHELAHQWFGNLVTLAWWNDLWLNEGFASYVEYLGADHAEPTWNLKDLIVPGDVYRVMAVDALASSHPLTTPAEEVNTPAQISEMFDSISYSKGASVIRMLSNFLTEDLFKEGLASYLHAFAYQNTTYLDLWEHLQKAVDAQTSIRLPDTVRAIMDRWTLQMGFPVITVDTKTGNISQKHFLLDSESNVTRSSAFDYLWIVPISSIKNGVMQDHYWLRDVSQAQNDLFKTASDDWVLLNVNVTGYFQVNYDEDNWRMIQHQLQTNLSVIPVINRAQVIYDSFNLATAHMVPVTLALDNTLFLNGEKEYMPWQAALSSLSYFSLMFDRSEVYGPMKKYLRKQVEPLFQHFETLTKNWTERPENLMDQYSEINAISTACSNGLPQCENLAKTLFDQWMSDPENNPIHPNLRSTIYCNAIAQGGQDQWDFAWGQLQQAQLVNEADKLRSALACSNEVWLLNRYLGYTLNPDLIRKQDATSTINSIASNVIGQPLAWDFVQSNWKKLFQDYGGGSFSFSNLIQGVTRRFSSEFELQQLEQFKKNNMDVGFGSGTRALEQALEKTKANIKWVKENKEVVLNWFIEHS",binding result,binds
